The target of this test is T1, MS2 coat protein (bacteriophage MS2), P03612.
T1 chain: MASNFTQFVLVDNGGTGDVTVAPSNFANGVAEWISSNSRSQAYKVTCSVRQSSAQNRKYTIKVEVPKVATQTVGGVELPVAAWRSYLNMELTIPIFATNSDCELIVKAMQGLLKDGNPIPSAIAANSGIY
As to the kind of experiment: native MS + AUC. The following applies: remark: other sources report otherwise.

B1: MS2 coat protein, P03612 1-130 (natural protein)
chain: MASNFTQFVLVDNGGTGDVTVAPSNFANGVAEWISSNSRSQAYKVTCSVRQSSAQNRKYTIKVEVPKVATQTVGGVELPVAAWRSYLNMELTIPIFATNSDCELIVKAMQGLLKDGNPIPSAIAANSGIY
A word on the stoichiometry N: it is a count of units in the complex or per binding partner. B1: the stoichiometry N turned out to be 2.

For the origin of these results see publication PMC4793595.
